Source: patent US20090221680, “Aptamers that bind thrombin with high affinity” (published 2009)

Target: thrombin (alpha-thrombin) (Homo sapiens, UniProt P00734;P00734 P00734:315-363,P00734:364-622)
Experiment: filter

With ACTGCCTAGGTTGGGUAGGGTGGTGGCAGT (XNA, 2'-OMe U16, rest DNA) [ARC2628] the Kd was 0.207 nM.

ACTGCCTAGGTTGGGTAGGGTGGTGGCAGT (XNA, 2'-OMe G10, rest DNA) [ARC2622] showed a Kd of 0.038 nM.

For ACTGCCTAGGTTGGGTAGGGTGGTGGCAGT (XNA, 2'-OMe G19, rest DNA) [ARC2631], the Kd was 4.96 nM.

ACTGCCTAGGTTGGGTAGGGTGGTGGCAGT (XNA, 2'-OMe G23, rest DNA) [ARC2635] was tested, and the Kd was 0.248 nM.

ACUGCCTAGGTTGGGTAGGGTGGTGGCAGU (XNA, 2'-OMe 1-5,27-30, rest DNA) [ARC2825] showed a Kd of 1.03 nM.

ACTGCCTAGGTTGGGTAGGGTGGTGGCAGT (XNA, 2'-OMe A28, rest DNA) [ARC2640] gave a Kd of 0.174 nM.

ACUGCCUAGGTTGGGTAGGGTGGUGGCAGU (XNA, 2'-OMe 1-7,24,25,27-30, rest DNA) [ARC2823] gave a Kd of 9.1 nM.

For ACTGCCTAGGTTGGGTAGGGTGGTGGCAGT (ssDNA, PS between G23 and T24) [ARC2666], the Kd was 0.992 nM.

ACTGCCTAGGTTGGGTAGGGTGGTGGCAGU (XNA, 2'-OMe U30, rest DNA) [ARC2642] was tested, and the Kd was 0.094 nM.

Binder ACTGCCTAGGTTGGGTAGGGTGGTGGCAGT (XNA, 2'-OMe G13, rest DNA) [ARC2625] has a Kd of 0.568 nM.

AAUGAUUAGGTTGGGTAGGGTGGUAUCAUU (XNA, 2'-OMe 1-7,24-30, rest DNA) [ARC2827] was tested, and the Kd was 4.06 nM.

For AATGATTAGGTTGGGTAGGGTGGTATCATT (ssDNA) [ARC2826], the Kd was 0.77 nM.

ACTGCCTAGGTTGGGTAGGGTGGTGGCAGT (XNA, 2'-OMe G29, rest DNA) [ARC2641] gave a Kd of 0.171 nM.

Binder ACTGCCTAGGTTGGGTAGGGTGGTGGCAGT (XNA, 2'-OMe G22, rest DNA) [ARC2634] has a Kd of 0.549 nM.

Binder ACTGCCTAGGTTGGGTAGGGTGGTGGCAGT (XNA, 2'-OMe G26, rest DNA) [ARC2638] has a Kd of 0.192 nM.

In the case of ACTGCCTAGGTTGGGTAGGGTGGTGGCAGT (XNA, 2'-OMe G18, rest DNA) [ARC2630], the Kd is reported as 5.24 nM.

ACUGCCTAGGTTGGGTAGGGTGGTGGCAGU (XNA, 2'-OMe 1-6,25,27-30, rest DNA) [ARC2824] was tested, and the Kd was 0.73 nM.

ACTGCCTAGGUTGGGTAGGGTGGTGGCAGT (XNA, 2'-OMe U11, rest DNA) [ARC2623] was tested, and the Kd was 0.746 nM.

For ACTGCCTAGGTTGGGTAGGGTGGUGGCAGT (XNA, 2'-OMe U24, rest DNA) [ARC2636], the Kd was 0.102 nM.

ACTGCCTAGGTTGGGTAGGGTGGTGGCAGT (XNA, 2'-OMe G25, rest DNA) [ARC2637] was tested, and the Kd was 0.118 nM.

ACTGCCTAGGTTGGGTAGGGTGGTGGCAGT (ssDNA, PS between G10 and T11) [ARC2653] showed a Kd of 0.066 nM.

ACTGCCTAGGTTGGGTAGGGTGGTGGCAGT (XNA, 2'-OMe C27, rest DNA) [ARC2639] showed a Kd of 0.08 nM.

With ACTGCCTAGGTTGGGTAGGGTGGTGGCAGT (XNA, 2'-OMe G14, rest DNA) [ARC2626] the Kd was 1.59 nM.

Binder ACTGCCTAGGTTGGGTAGGGTGGTGGCAGT (ssDNA, PS between T16 and A17) [ARC2659] has a Kd of 0.452 nM.

Work on ACTGCCTAGGTTGGGTAGGGTGGTGGCAGT (ssDNA, PS between T12 and G13) [ARC2655] yielded a Kd of 0.079 nM.
